Test: yeast display, Sf9 membrane polyspecificity reagent, FACS + sequencing; frameworks hold sequencing errors
Method in brief: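 Genes from sorted yeast were amplified by colony PCR, read by MiSeq 2 × 250 sequencing and filtered on CDR length. These cells carried a synthetic nanobody library in Saccharomyces cerevisiae BJ5465 and were sorted by FACS into low and high (top ~1%) gates on anti-HA and streptavidin fluorescence. Polyreactivity is labelled according to the gate of origin.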

Sequence: QVQLVESGGGLDQAGGSLRLSCAASGSIFSHYAMGWYRQAPGKERELVAAISRSGGSTYYADSVKGRFTISRDNAKNTVYLQMNSLKPDDTAVYYCSKEGDSGYWFDYWGQGTQVTVSS
- polyreactivity (PSR sort gate): low polyreactivity

Sequence: QVQLVESGGGLDQAGGSLRLSCAASGSIFTDNAMGWYRQAPGKERELVASITIAGSTKYADSVKGRFTISRDNAKKTVYLQMNSLKPEDTAVYYCNAEASDLHDYWGQGTQVTVSS
- polyreactivity (PSR sort gate): low polyreactivity

Sequence: QVQLVESGGGLDQAGGSLRLSCAASGSIFVNYARGWYRQAPGKERELVAAITRSGGRTYYADSVKGRFTISRDNAKNTVYLQMNSLKPEVTAVYYCAARRGYAGNRDGYWGQGTQVNVSS
- polyreactivity (PSR sort gate): high polyreactivity

Sequence: QVQLVESGGGLDQAGGSLRLSCAASGSIFVYYAMGWYRHAPGKEMELVAAITSGTSTNYADSVKGRFTISRDNAQNTVYLQMNSLKPEDTAVYYCAADHYYTGTTYNYWGQGNQVTVSS
- polyreactivity (PSR sort gate): low polyreactivity

Sequence: QVQLVESGGGLDQAGGSLRLSCAASGSIFYRNAIGWYRQAPGKDREFVAAITLRGGSTYYADSVKGRFTISRDNAKNTVYLQMNSLKPEDTAVYYCAADLLLYSSQDNDYWGQGTQVTVSS
- polyreactivity (PSR sort gate): low polyreactivity

Sequence: QVQLVESGGGLDQAGGSLRLSCAASGSIFYVNAMGWYRQAPGKERELVAAITSGGSTSYADSVKGRFTISRDNAKNTVYLQMNSLKPEDTAVYYCAADWDYPEQYRVNYEYGYWGLGTQVTVSS
- polyreactivity (PSR sort gate): low polyreactivity

Sequence: QVQLVESGGGLDQAGGSLRLSCAASGSIFYYYVMGWYRQAPGKERELVAAITNSDRTYYADSVKGRFTISRDNAKNTVYLQMNSLKLEDTAVYYCNADWFDQYYRDGLRGRYGYWRQGTQVTVSS
- polyreactivity (PSR sort gate): low polyreactivity

Sequence: QVQLVESGGGLDQAGGSLRLSCAASGSIIGIYAMGWYRQAPGKERELVAAISWSGGSTYYADSVKGRFTISRDNAKNTVYLQMNSLKPEDTAVYYCAARGHYQYYWGQGTQVTVSS
- polyreactivity (PSR sort gate): low polyreactivity

Sequence: QVQLVESGGGLDQAGGSLRLSCAASGSTFARNVMGWYRLAPGKERELVAAISWRGGRTYYADSVKGRFTISRDNAKNTVYLQMNSLKPEDTAVYYCAAGRSFRGSYWYEYWGQGTQVTVSS
- polyreactivity (PSR sort gate): high polyreactivity

Sequence: QVQLVESGGGLDQAGGSLRLSCAASGSTFESNAMGWYRQAPGKERELVAAISWRVGSTYYADSVKGRFTISRDNAKNTDYLQMHSLKPEDTAVYYCASKGWYSHYGGYDYWGQGTQVTVSS
- polyreactivity (PSR sort gate): low polyreactivity

Sequence: QVQLVESGGGLDQAGGSLRLSCAASGSTFGWYAMGWYIQAPGTERELVAAINSSGGTTYYADSVKGLFTISRDNAMNTVYLQMNSLKPEDTAVHYCAARQVYSVGKDTRSVGYWGQGTQVTGSS
- polyreactivity (PSR sort gate): low polyreactivity

Sequence: QVQLVESGGGLDQAGGSLRLSCAASGSTFGYYAMAWYRQSPGKERELVAAITSGASTNYADSVKGRFTISRDNAKNTVYLQMNSLKPEDTAVYYCAAGFQTRTPLNEFDYWGQGTQVTLSS
- polyreactivity (PSR sort gate): low polyreactivity

Sequence: QVQLVESGGGLDQAGGSLRLSCAASGSTFRYSVMGWSRQAPGKERELVAGISYRGGTTYYADSVKGRFTISRDNAKNTVYLQMNSLKPEDTAVYYCAADSTPYVLSGNYDYWGQGTQVTVSS
- polyreactivity (PSR sort gate): low polyreactivity

Sequence: QVQLVESGGGLDQAGGSLRLSCAASGSTFYAYAMGWYRQAPGKERELVAANSSDGTNYADSVKGRFTLSRDNAKNTVYLQMNSLKPEDTAVYYCAKDSVWGAKNLTSYKYYYWGQGTQVTVSS
- polyreactivity (PSR sort gate): low polyreactivity

Sequence: QVQLVESGGGLDQAGGSLRLSCAASGYIFYRNAMGCYRQAPGKERELVAAITYTGGRTYYADSVKGRFTISRDNAKNTVYLQMNSLKPEDTAVYYCNADGRVFVVRPYYDYEYWGQGTQVTVSS
- polyreactivity (PSR sort gate): low polyreactivity

Sequence: QVQLVESGGGLDQAGGSLRLSCAASVSNFEYYVMGWYRQAPGTERELVAVIRRSSGSTYYADSVKGRFTISRDNAKNTVYLQMNSLKPEDTAVYYCAARRYEPIIWHRMDYCGQGTQVTVSS
- polyreactivity (PSR sort gate): low polyreactivity

Sequence: QVQLVESGGGLDQAGGSLRLSCAAYGNTFRGYTMGWYRQAPGKEREFVAAISWSGGRTNYADSVKGRFTISRDNAKNTVYLQMNSLKPEDTAVYYCARDYRARRWGMDYWGQGTQVTVSS
- polyreactivity (PSR sort gate): high polyreactivity

Sequence: QVQLVESGGGLDQAGGSLRLSCAAYGSIFYGYAMGWYRTAPGKERELVAAITSGGSTYYADSVKGRFTISRDNAKNTVYLQMNSLKPEDTAVYYCAATFCTWYSWYDYWGQGTQVTVSS
- polyreactivity (PSR sort gate): high polyreactivity

Sequence: QVQLVESGGGLDQAGGSLRLSCADSGYILDRNAMGWYRHAPGKETALVAVISWGGTRTYYADSVKGRFTISRDNAKNTVYLQMISLKPEDTAVYYCARYPYYYGYAGRYDYWGQGTQVTVSS
- polyreactivity (PSR sort gate): high polyreactivity

Sequence: QVQLVESGGGLDQAGGSLRLSCAPSGRIFYTNAMGWYRQAPGKERELVAAISSGGGRTYYADSVKGRFTISRDNAKNTVYLQMNSLKPEDTAVYYCAASNVGYRSYSRGFDYWGQGTQVTVSS
- polyreactivity (PSR sort gate): high polyreactivity

Sequence: QVQLVESGGGLDQAGGSLRLSCASSGIIFWWNTMGGYRQAPGQESEMVAAISTGGSTNYADSVKGRFTISRDNAKNTVYLQMNSLKPEDTAVYYCNADWTDGDWADMDYWGQGTQVTVSS
- polyreactivity (PSR sort gate): low polyreactivity

Sequence: QVQLVESGGGLDQAGGSLRLSSAASGFTISWYDMGWYRQAPGKERELVAAITYTGGSTYYADSVKGRFTISRDNAKNTVYFQMNSLKPEDTAVYYCNADEPSSNMDYWGQGTQVTVSS
- polyreactivity (PSR sort gate): low polyreactivity

Sequence: QVQLVESGGGLDQAGGSLRLSSAASGSIFSGYAMGWYRQAPGKERELVAAISSSGTRTYYADSVKGRFTISRDNAKNTVYLQMNSLKPEETAVYYCNAATSKVQFSGYGYWGQGTQVTVSS
- polyreactivity (PSR sort gate): high polyreactivity

Sequence: QVQLVESGGGLDQAGGSLRLSSAASGSIFVDNAMGWYRQAPGKERELVAAISRRGGSTYYADSVKGRFTISRDNAKNTVYLQMNSLKPEDTAVYYCNKKNIQFYQGASDYWGQGTQVTVSS
- polyreactivity (PSR sort gate): high polyreactivity

Sequence: QVQLVESGGGLDQAGGSLRLTCAASGIIFFEYAMGWYRQAPGKERELVAAISWRGGRTYYADSVKGRFTISRDNAKNSVYLQMNSLKPEDTAVYYCAADFRSWPYYPWSKYDYWGQGTQVTVSS
- polyreactivity (PSR sort gate): high polyreactivity

Sequence: QVQLVESGGGLDQAGGSLRLTCAASGRIFGAYAMGWYRQAPGKEMELVAVISLSTGSTYYADSVKVRFTISRDNAKNTVYLQMKSLKPDDTAVYYCAVDTRFKWGWDYYYWGLGTQVTVSS
- polyreactivity (PSR sort gate): high polyreactivity

Sequence: QVQLVESGGGLDQAGGSLSLSTAASGFTFYVKAMGLYRQAPGKEREWVAAISSSGTRTYYADSVKGRFTISRDNAKNSVYFQMKCLKPEYTAVYFCAARGQAYSGDRMYYWGQGTQVTVSS
- polyreactivity (PSR sort gate): high polyreactivity

Sequence: QVQLVESGGGLDQAGGSRRLSGAASGSTFHGYDKGWYIQAPGKERELVAAITSSGDDTYYADSVKGRFTISRDNAKNTVYLKRNSLKPEDTAVYYCDAEYTEGYTHDYWGQGTKVTVSS
- polyreactivity (PSR sort gate): low polyreactivity

Sequence: QVQLVESGGGLDQAGRSLRLSFAASGRTFDLYPMGWYRQAPGKERELVAAITNGETYADSVKGRFTISLDDAKNTVYLQMNSLKPEDTAVYYCAKYDPWFWRAEDYWGQGTQVTVSS
- polyreactivity (PSR sort gate): low polyreactivity

Sequence: QVQLVESGGGLDQARGSLRLSCAASGFIFGRYAMGWYRQAPGKVRELVAAISRSGGSTHYADSVKGRFTISRDNAKNTVYLQMNSLKPEDTAVYYCNTYLTIWGYFYGYDYWGQGTQVTVSS
- polyreactivity (PSR sort gate): high polyreactivity

Sequence: QVQLVESGGGLDQARGSLRLSCAASGRIFWRYAMGWYRQAPGKERELVASISSGGSTNYADSVKGRFTISRDNAKNTVYLQMNSLKPEDTAVYYCNAQAWHLGVITGRWNRYEYWGQGTQVTVSS
- polyreactivity (PSR sort gate): high polyreactivity

Sequence: QVQLVESGGGLDQARGSLRLSCAASGSILRYYTMGWYRQAHGKERELVAAISYRGSSTYYADSVKGRFTISRDNAKNTVYLQMNSLKPEDTAVYYCARGGYYGYDYWGQGTQVTLSS
- polyreactivity (PSR sort gate): high polyreactivity

Sequence: QVQLVESGGGLDQARGSLRLSCAASGSTFKRKPLGWYRQATGKERELVAAITQSGGSTYYADSVKGRFTISRDNAKNTVYLLMYSLKPEDTSVYYCAASYLRGRRYEYWGQGTQVTVSS
- polyreactivity (PSR sort gate): high polyreactivity

Sequence: QVQLVESGGGLEQAGGSLRLSCAASGITLRVNAMGWYRQAPGKERELVAAITRGTNTYYADSVKGRFTISRDNAKNTVYLQMNSLKPEDTAVYYCAARLPYNAIGYYYWGQGTQVTVSS
- polyreactivity (PSR sort gate): low polyreactivity

Sequence: QVQLVESGGGLEQAGGSLRLSCAASGLTFSVYAMGWYRQAPGKERELVAGITSSGGDTYYADSVKGRLTISRDNAKNTVYLQMNSLKPEDTAVYYCNAKYRTFVSKHDYWGQGTQVTVSS
- polyreactivity (PSR sort gate): low polyreactivity

Sequence: QVQLVESGGGLFHAGGSLRLSCAASGIIFGGYTIGWYRQAPGKERELVAAISWSGVGTYYADSVKGRFTISRDNAKNTVYLQMNSLKPDDTAVYYCAAWAYYSDDDEYWGQGTQVTVSS
- polyreactivity (PSR sort gate): high polyreactivity

Sequence: QVQLVESGGGLFHAGGSLRLSCSASGLTFDINAMGWYRQEPGKERELVAAISRSGGRTYYADSVKGRFTISRDNAKNTVFLQMNSLKPEDTAVYYCADRFIYGYDYWGQGTQVTVSS
- polyreactivity (PSR sort gate): high polyreactivity

Sequence: QVQLVESGGGLFQAGGRLRLSCAASGRIFWLYAMGWYRQAPGKERELVAAITGIGGSTYYADSVKGRFTISRDNAKNTVYLQMNSLKPEDTAVYYCAARSPATYPSMGYWGQGTQGTVSS
- polyreactivity (PSR sort gate): low polyreactivity

Sequence: QVQLVESGGGLFQAGGRLRLSCAATGSIFSVYTMGWYRQAPGKERELVATISFSVGRTYYADSVKGRFTISRDNEKNSVYLQMNSLKPEDTAVYYCNARSCGGYYHWGQGTQVTVSS
- polyreactivity (PSR sort gate): high polyreactivity

Sequence: QVQLVESGGGLFQAGGSHRLSCAATGINFSEYAMGWYRQAPGKERELVAAISKSSGSTRYADSVKGRFTISRDNAKNTVFLQMNSLNPEDTAVYYCAARQYGPRYTYYYWGQGTQVTVSS
- polyreactivity (PSR sort gate): high polyreactivity

Sequence: QVQLVESGGGLFQAGGSLRLSCAASGFIFPINAMGWYRQAPGKERELVAAITSGGRTNYADSVKGRFTISRDNAKNTVYLQMNSLKPEDTAVYYCNAVVFVLNVEYYPWLLNNYWGQGTQVTVSS
- polyreactivity (PSR sort gate): low polyreactivity

Sequence: QVQLVESGGGLFQAGGSLRLSCAASGFIFSHYAMGWYRQAPGNDREFVATISKRGGSTTYADSVKGRFTISRDNAKNTVYFQMNSLKPVDTAVYDFAADYYPASAGFDYWGQGTQVTVSS
- polyreactivity (PSR sort gate): high polyreactivity

Sequence: QVQLVESGGGLFQAGGSLRLSCAASGFIFSYNAMGWYRQAPGKERELVAAISSSGGTTYYADSVKGRFTISRDNAKNTVYLQMNSLKPEDTAVYYCNARWHAEYDYWGQGTQVTVSA
- polyreactivity (PSR sort gate): low polyreactivity
